Laboratory results taken from patent US20250282872A1 (ANAPTYSBIO, published 2025).
Values belong to the molecule of their own block, whether it stands above or below them.

How the values were obtained:
[1] = molecular target: cynomolgus monkey BTLA on cells (cynomolgus monkey); test: flow cytometry dot plot, cynomolgus monkey lysed whole blood, CD3 (PerCP Cy5.5) against BTLA (APC), 33 nM antibody
[2] = molecular target: β-galactosidase enzyme donor (ED)-tagged human BTLA on Jurkat cells (human, UniProt Q7Z6A9 31-289); test: cell-based or functional assay
[3] = molecular target: T1, cynomolgus monkey BTLA on cells (cynomolgus monkey, UniProt A0A2K5W7M7 31-289); test: flow cytometry on cynomolgus monkey whole blood, staining of CD20+ B cells against CD3+ T cells
T1 construct: whole, on cells; also called 293c18 clone 1G5; BTLA on cynomolgus monkey peripheral blood T and B cells
T1 sequence: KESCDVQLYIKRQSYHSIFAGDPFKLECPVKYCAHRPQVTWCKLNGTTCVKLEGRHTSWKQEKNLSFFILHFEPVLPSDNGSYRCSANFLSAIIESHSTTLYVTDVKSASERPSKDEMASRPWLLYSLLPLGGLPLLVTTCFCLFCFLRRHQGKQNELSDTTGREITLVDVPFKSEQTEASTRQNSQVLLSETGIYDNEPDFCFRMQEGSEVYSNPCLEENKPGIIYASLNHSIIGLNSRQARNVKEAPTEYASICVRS
Protocol: Blood was then aliquoted into wells and incubated with the indicated concentrations of 6G3-AF647 (APE13766.02), or APC-Mouse Anti-Human CD272 (BTLA) reference antibody (clone J168-540; BD Biosciences) for 30 minutes at room temperature, in the dark. Following incubation, red blood cells were lysed for 10 minutes by addition of 2.0 ml diluted BD Pharm Lyse lysing solution (BD Biosciences), samples centrifuged at 200×g for 5 minutes, washed in FACS Buffer [Dulbecco's PBS, no calcium, no magnesium (Gibco/ThermoFisher Scientific), 25 mM HEPES, pH 7.2, 0.1% BSA, 0.1% sodium azide] and fixed in 4% paraformaldehyde (200 μl/sample) for 10 minutes at room temperature. Samples were washed twice in FACS Buffer and analyzed for fluorescence on a NovoCyte Quanteon flow cytometer (ACEA Biosciences, Inc.). Data were analyzed using NovoExpress Software (ACEA Biosciences, Inc.). Mean fluorescence intensity (MFI) values were graphed and fit with nonlinear regression analyses in GraphPad Prism (GraphPad Software, Inc.). MFI values for each anti-BTLA antibody on total CD3⁺ cells are shown in FIG. 5A; MFI values for each anti-BTLA antibody on total […] are shown in FIG. 5B. […] Binding of each anti-BTLA antibody to CD3⁻ cells in FIG. 5C and FIG. 5D (green cells in the bottom quadrants of each panel) reflects the binding to CD20+ B cells. […]

[4] = molecular target: T2, BTLA-ECD, purified recombinant (Example 19)
T2 sequence (Q7Z6A9 31-157, species assumed, looked up): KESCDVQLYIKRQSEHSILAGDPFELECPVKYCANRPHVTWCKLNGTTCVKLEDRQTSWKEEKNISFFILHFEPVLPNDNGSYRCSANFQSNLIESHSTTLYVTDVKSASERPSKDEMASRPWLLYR

% of cells in quadrant Q8-2 (CD3+, BTLA stain positive) [1]: 35.8% | % of cells in quadrant Q8-4 (CD3-, BTLA stain positive) [1]: 28% | Total BTLA (% of cells stained) [1]: 63.9%
Molecule: APC-Mouse Anti-Human CD272 (BTLA) reference antibody clone J168-540 (BD Biosciences)

SHP2 recruitment PathHunter Jurkat BTLA signaling assay with U-2 OS hFcγRIa cells, EC50 [2]: 9.3 ng/mL | SHP2 recruitment PathHunter Jurkat BTLA signaling assay, soluble antibody, EC50 [2]: 125 ng/mL | fold change of agonist potency with against without cell-associated FcγRIa [2]: ~13 fold | MFI on B cells relative to MFI on T cells [3]: ~9 fold
B1: 6G3 IgG4 anti-BTLA antibody (antibody, V domains shown)
VH: QVQLVQSGAEVKKPGSSVKVSCKASGYVFSTSWMNWVRQAPGQGLEWMGRIYPGDADTNYVGKFKGRVTITADKSTTTAYMELSSLRSEDTAVYFCAKSGTFNFGNYRWYFDVWGKGTTVTVSS
VL: AIQLTQSPSSLSASVGDRVTITCRVSENIYSHLAWYQQKPGKAPKLLIYAATNLALGVPSRFSGSGSGTDYTLTISSLQPEDFATYYCQLFWGPPLTFGGGTKVEIKR
notes: Humanized, IgG4; also called APE10840; APE10840.03

B2: Proteinase 3 (PR3), purified recombinant (protein)
chain: IVGGHEAQPHSRPYMASLQMRGNPGSHFCGGTLIHPSFVLTAAHCLRDIPQRLVNVVLGAHNVRTQEPTQQHFSVAQVFLNNYDAENKLNDVLLIQLSSPANLSASVATVQLPQQDQPVPHGTQCLAMGWGRVGAHDPPAQVLQELNVTVVTFFCRPHNICTFVPRRKAGICFGDSGGPLICDGIIQGIDSFVIWGCATRLFPDFFTRVALYVDWIRSTLR
proteolytic cleavage after co-incubation for up to 60 minutes (gel lanes) [4]: soluble BLTA-ECD was cleaved into multiple smaller fragments
